Measurements taken from the supplement of paper PMC12042874.
± gives the uncertainty stated by the source.

Assay: amyloid nucleation score (Sup35N fusion, yeast selection) (log enrichment); library NNK1; higher = more nucleation; inactive = no reads after selection
In short: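 In psi-negative yeast, Sup35N fusions carrying peptides of 20 random codons were induced with 100 μM copper sulfate for 24 hours. The cells then grew 7 days at 30°C on medium lacking adenine and uracil, and plasmid inserts from input and output were Illumina-sequenced, excluding sequences with under 100 input reads. Nucleation score is the DiMSum log enrichment of output over input reads, centred on the mode score of non-aggregating sequences.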

In order of rising amyloid nucleation score:
1. PLSWTNMKYKGSCVYFMVFF  -2.14 ± 2.4
2. PLVKGIHSNPRTYTTMYYSY  -1.93 ± 2.7
3. PLEMGSHIGRL  -1.54 ± 2.7
4. PFRGDGIGYISVGGWFVQDN  -1.51 ± 2.4
5. PGKRHGFMLRDFAMPKLSYH  -0.918 ± 0.59
6. PSRWRYYGSYGDLILICSGS  -0.907 ± 0.79
7. PIEHDEWLTVMVYCDGRLLA  -0.894 ± 2.4
8. PPQLHRVEFLIVSGR  -0.859 ± 1.4
9. PCTFWAEVRINRWSYYARQR  -0.856 ± 2.4
10. PHVTGGSPCSKHSLRW  -0.716 ± 0.65
11. PELYSVDHFNGYAPNYCRCR  -0.534 ± 0.43
12. QCDRILSDLYNCSGYNRNTK  -0.522 ± 0.74
13. PIKHCRRRNTDRRKTGMSQV  -0.447 ± 0.62
14. PWDYVSLSI  -0.424 ± 0.73
15. PRVQRPPKVRTAELTTGPSQ  -0.423 ± 0.37
16. PCSKAFRAVNISEAKIDFGN  -0.416 ± 0.5
17. PTLLALYGG  -0.414 ± 0.61
18. PSTRRVGDWDFLTSSTGRTM  -0.403 ± 0.35
19. PREDRGLSWISGYYYYLVAG  -0.341 ± 0.47
20. PCWTNSLLKPPVGIR  -0.281 ± 1.1
21. PVLRTSWTCWA  -0.254 ± 0.6
22. PWCQVRHSSYRASWSSVVVN  -0.254 ± 0.48
23. PRSMRKNSYGLGSGVRDHVQ  -0.238 ± 0.56
24. PEGWYLTNCRAGRFSSR  -0.222 ± 0.39
25. PNAVNIIYDCAQLLFMRTMR  -0.188 ± 0.65
26. PGKICSNDQVNVSAY  -0.179 ± 0.49
27. PLHCSVGRIRSGLMCLKLTC  -0.17 ± 1.1
28. PGVECACRVSNATNVDGLDL  -0.168 ± 0.5
29. PCMFYWTVLGRLRTKPPSGV  -0.153 ± 0.44
30. PLLFKGYNAHRPNLVLTTML  -0.143 ± 1.7
31. PVCFAFQFRATPNMQVHQPS  -0.108 ± 0.75
32. PWCFTLFALAPP  -0.077 ± 1.7
33. PWFIYDSLGFNSRCRSHLIK  -0.069 ± 0.88
34. PLARRVSAHILVRMNYRNFM  -0.048 ± 0.37
35. PSGTQCTAE  -0.047 ± 0.65
36. PTFFHNCVDTFRSS  -0.026 ± 0.47
37. PRVIELARLVRLRKTKVYML  -0.013 ± 0.24
38. PNSYASVHSNHKDIREAMYL  0.021 ± 0.44
39. PCAETLVRHIHAYLKWI  0.065 ± 1.2
40. QANVDCNVHPVTRML  0.085 ± 0.46
41. PVDVGYIRIPP  0.093 ± 0.87
42. PGRFLGLNSMTALVWY  0.095 ± 0.37
43. PIHPRTLMG  0.117 ± 0.59
44. PFSYLMDLTIYVGKSLQSNE  0.119 ± 0.35
45. PSKPLGIIRLVSNQFPPSHK  0.123 ± 0.29
46. PGCIICRVMTEANSRCLVRA  0.141 ± 1.2
47. PRVSRRPWLKGFNNVSNQQI  0.193 ± 1.5
48. PYVGHVGVKRDSNCK  0.206 ± 1.1
49. PQVKTFGVVFVGGMCE  0.216 ± 0.41
50. PDWCLMVLLCGLVCIYVDLN  0.22 ± 1.1
51. PERVVYANATAYRLLVKDAL  0.247 ± 0.33
52. PICANWLMHTVMINSSSGRG  0.27 ± 0.32
53. NYMSMWTV  0.324 ± 0.9
54. PFGVVGDVFQSTLC  0.371 ± 0.84
55. PFVQRFCL  0.486 ± 0.49
56. PIYGFLWELRR  0.486 ± 0.51
57. PLELPVVFIMSDFSFWRRAQ  0.555 ± 0.53
58. PFSAWYNNNTLTYSIDCINF  0.58 ± 0.19
59. PQGLTSSSMGLTSANHSAA  0.637 ± 0.88
60. PVDNLFNFLSGSCAISNFQK  0.638 ± 0.58
61. PAVAGEWNARMGWEATRYKA  0.669 ± 0.56
62. PGFYGPLIGFMWRCSARERC  0.673 ± 0.37
63. PFILFQWPTLHRDYVHAQVL  0.686 ± 1.1
64. PVLPDDLNARREYSGCIKYL  0.765 ± 0.55
65. PFVRVLTLGYAGVWNGRGKP  0.904 ± 0.57
66. PMRACHCCFGCTKSLAHDSN  0.912 ± 0.53
67. PLYSYADEVVDGKGSCERNC  0.946 ± 0.5
68. PACFSGCEVGFASDMCVLEL  0.947 ± 0.42
69. PLFCNNWSVLEFERRLGDMH  1.03 ± 0.24
70. PWPVSFYFMVNIVWCGRVIL  1.06 ± 0.26
71. PWNLLGKIVTFV  1.09 ± 0.94
72. PGRTLIVFFCVVVCQCEDNR  1.44 ± 0.5
73. PNFMMIWWVSTLRHNFTGLC  2.19 ± 0.31
74. PAYGTNIVAIYLWH  3.59 ± 0.093
75. PYPYAISRYVFMVSNSDMFM  4.53 ± 0.054
76. PLFLVVTQMS  5.25 ± 0.073
77. NYLGRVLFFYNWFDKQYRSK  5.878 ± 0.048
78. PFVYLVYCGNGNVFAAKYLS  6.217 ± 0.059
79. PVHVLYFTWMNQECCGHNYL  6.5 ± 0.07
80. PICCLLQLLGDSGWMCCSAW  6.538 ± 0.061

In the case of PAPLQIRNMSSNAKTR, the amyloid nucleation score is reported as “inactive”.
With PFQRGIYHWLYILGLVVELP the amyloid nucleation score was “inactive”.
For PFWAGG, the amyloid nucleation score was “inactive”.
For PMSKV, the amyloid nucleation score was “inactive”.
With PSSHWIAPNFVVN the amyloid nucleation score was “inactive”.
